Test results from patent US20220162327A1, “ANTI-CCR5 AGENTS AND METHODS OF TREATMENT THAT BLOCK CANCER METASTASIS OR ENHANCE CELL DEATH INDUCED BY DNA DAMAGING CHEMOTHERAPY” (CytoDyn Inc., priority 2019, published 2022).
“Also recorded” adds a separate entry of the source. Read-outs that look alike come from different tables or passages of the source.

Key:
MDA-MB-231 cells [1] = assay: MTT assay, leronlimab combined with doxorubicin; assay type: cell-based, human; conditions: 10 mg/ml leronlimab with different dose of doxorubicin, 3 days
Experimental: FIG. 5A and FIG. 5B. […] The MTT assay was used to determine the relative cell number (FIG. 5A). The cells treated with maraviroc ([…]) combining with different dose of doxorubicin were used as positive control (FIG. 5B). Data are shown as mean±SEM for N=8.

CCR5 [2] = biological target: T1, CCR5 (Homo sapiens, UniProt P51681); design: endogenous in cells; host or cells: CD4+ T cells; conditions: cited from earlier work
HIV-1 = conditions: at concentrations that do not affect CCR5 chemokine receptor activity in vitro; cited from earlier work
CCR5 [3] = biological target: T1, CCR5; assay: FACS binding of leronlimab to CCR5 in MDA-MB-231-CCR5 cells; design: expressed in transfected cells; host or cells: MDA-MB-231 human breast cancer cell line (MDA-MB-231-CCR5)
Source text: A previously tested commercial APC conjugated mouse anti-human/mouse/rat CCR5 antibody from R&D (FAB1802A) (APC-αCCR5) was used as a positive control to assess CCR5 positive cells.

MDA-MB-231 cells [4] = assay: 3D-matrigel invasion assay, CCL5 as chemoattractant; assay type: cell-based, human
Source text: FIG. 3A, FIG. 3B, FIG. 3C, and FIG. 3D. […] The ability of breast cancer cells to invade extra-cellular matrix is […] an important step in tumor metastasis (Zetter, 1990). To test the ability of PRO140 to block 3D-matrigel invasion assay, MDA-MB-231 cells were used. CCL5 was used as chemoattractant to induce invasion. The small molecule inhibitor of CCR5, vicriviroc, was used as a form of positive control.

[5] = Phase Ib/II study, safety; assay type: in vivo; conditions: Subject 706-001, at Cycle 6 Day 1 visit, weekly leronlimab and carboplatin every three weeks
Source text: The primary objective of Phase 1b is to determine the safety, tolerability and maximum tolerate dose (MTD) of PRO 140 in patients with TNBC, when combined with carboplatin to define a recommended Phase II dose of the combination. The primary objective of phase 2b is to evaluate the impact on progression-free survival (PFS) of the combination PRO 140 and carboplatin in patients with CCR5+ TNBC previously treated with anthracyclines and taxanes in neoadjuvant and adjuvant setting.
Each treatment cycle consisted of 21 days. […] This treatment regimen was used for all subjects enrolled in the mTNBC study, unless otherwise indicated.

[6] = tested on: breast cancer tumor model; assay: Breast cancer tumor model; assay type: in vivo
Source text: C-C Chemokine receptor type-5 (CCR5) is selectively reexpressed on the surface of tumor cells during the dedifferentiation and transformation process (velasco-velazquez-2012).
Another cancer hallmark that CCR5 presents a potential role is the DNA repair pathways. This cancer characteristic attenuates apoptosis and contributes to chemotherapy resistance and tumor cells immortality. Studies have correlated the altered expression of C-C Chemokine Ligand type-5 (CCL5) with disease progression in patients with breast cancer [Luboshits, 1999] [Niwa, 2001] [Zhang, 2009].

[7] = tested on: MDA-MB-231 cells stable transfected with Luc2-GFP; assay: Mouse lung metastasis model, bioluminescence imaging; assay type: in vivo; conditions: mice, tail-vein injection, treated one day before injection
Experimental: FIG. 4A and FIG. 4B. Leronlimab block breast cancer metastasis in mice. […] MDA-MB-231 cells stable transfected with Luc2-GFP was injected into the mice through tail-vein. The mice in each group were treated one day before injection. The metastasis tumor formed in the lung was determined by bioluminescence imaging. […] The quantitative analysis of tumor size in each group was shown in (FIG. 4B). The size of tumors defined by photon flux (x10^8 p/sec/cm^2/sr).

T1 sequence (P51681 whole entry): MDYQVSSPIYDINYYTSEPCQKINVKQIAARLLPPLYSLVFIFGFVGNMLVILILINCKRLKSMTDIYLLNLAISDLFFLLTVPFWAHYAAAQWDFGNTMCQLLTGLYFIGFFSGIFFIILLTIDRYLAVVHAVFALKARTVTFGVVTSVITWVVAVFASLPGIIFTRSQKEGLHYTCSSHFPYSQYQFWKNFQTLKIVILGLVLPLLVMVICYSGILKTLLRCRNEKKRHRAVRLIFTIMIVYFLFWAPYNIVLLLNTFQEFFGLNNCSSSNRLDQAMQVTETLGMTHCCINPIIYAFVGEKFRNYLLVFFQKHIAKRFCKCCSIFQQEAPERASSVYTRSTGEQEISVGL

B1: leronlimab: humanized monoclonal antibody to CCR5; humanized version of the murine mAb PA14 (antibody, chains of the INN, looked up, V domains shown)
VH: EVQLVESGGGLVKPGGSLRLSCAASGYTFSNYWIGWVRQAPGKGLEWIGDIYPGGNYIRNNEKFKDKTTLSADTSKNTAYLQMNSLKTEDTAVYYCGSSFGSNYVFAWFTYWGQGTLVTVSS
VL: DIVMTQSPLSLPVTPGEPASISCRSSQRLLSSYGHTYLHWYLQKPGQSPQLLIYEVSNRFSGVPDRFSGSGSGTDFTLKISRVEAEDVGVYYCSQSTHVPLTFGQGTKVEIK
- cell death induced by doxorubicin (MDA-MB-231 cells [1]): augmented cell killing by DNA damage inducing agents including Doxorubicin; also recorded: enhances the cell death induced by doxorubicin
- effect on cAMP levels (CCR5 [2]; added to CD4+ T cells alone): does not affect cAMP levels
- effect on cAMP levels (CCR5 [2]; administered with CCL5): diminishes the effect of CCL5 on cAMP levels
- inhibition of HIV-1 entry and replication (HIV-1): potently inhibits HIV-1 entry and replication
- efficiency of binding to CCR5 positive cells (CCR5 [3]): 98%
- efficiency of binding to CCR5 positive cells (CCR5 [3]; listed as PRO140): up to 98%
- effect on MDA-MB-231 cell invasion (MDA-MB-231 cells [4]; 175 µg/ml): can effectively block MDA-MB-231 cell invasion
- effect on MDA-MB-231 cell invasion (MDA-MB-231 cells [4]; 350 µg/ml): can effectively block MDA-MB-231 cell invasion
- effect on CCL5-induced cell invasion (MDA-MB-231 cells [4]; vicriviroc as positive control): reduced CCL5-induced MDA-MB-231 breast cancer cell invasion with similar efficacy as vicriviroc; also recorded: blocked 3D matrigel invasion
- serious adverse events [5]: no serious adverse events had been reported
- tumor volume [6]: significant reduction in tumor volume
- breast cancer tumor metastasis to the lung [7]: blocks human breast cancer xenograft metastasis in mice; also recorded: dramatically decreased breast cancer tumor metastasis to the lung
